Assay results: publication PMC3194004
Where two headings read alike, the source gives them in different places.

Experiments:
[1] = molecular target: HIV-1 full-length wild-type capsid protein (CA), residues 1-231 (HIV-1) (UniProt P03347); experiment: dynamic light scattering
[2] = molecular target: HIV-1 full-length wild-type capsid protein (CA), residues 1-231 (HIV-1) (UniProt P03347); experiment: dynamic light scattering; remark: listed apart in the source

HIV-1 full-length wild-type capsid protein (CA), residues 1-231 (from UniProt P03347 133-363) (natural protein)
stoichiometry N [1]: 2 | stoichiometry N [2]: 2
